The values below come from patent publication US20180155430A1.

In test [1] the target is human PD-1 (Programmed Death-1) (human) (UniProt Q15116). Briefly: cell-based or functional assay.
Test [2] has as its target human PD-L1 (PD-ligand 1) (human) (UniProt Q9NZQ7). Briefly: cell-based or functional assay.
Chain of UniProt Q9NZQ7 (Q9NZQ7 19-290 limits assumed): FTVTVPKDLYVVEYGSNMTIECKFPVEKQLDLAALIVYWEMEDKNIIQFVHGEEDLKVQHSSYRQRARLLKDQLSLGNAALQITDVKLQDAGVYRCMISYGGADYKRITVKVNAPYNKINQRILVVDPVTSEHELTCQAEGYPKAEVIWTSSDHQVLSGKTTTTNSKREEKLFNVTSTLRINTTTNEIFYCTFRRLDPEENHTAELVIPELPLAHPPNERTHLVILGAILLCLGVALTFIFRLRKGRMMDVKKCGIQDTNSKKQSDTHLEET

Chain of UniProt Q15116 (Q15116 other isoform, or with tags, fused parts or gaps limits assumed): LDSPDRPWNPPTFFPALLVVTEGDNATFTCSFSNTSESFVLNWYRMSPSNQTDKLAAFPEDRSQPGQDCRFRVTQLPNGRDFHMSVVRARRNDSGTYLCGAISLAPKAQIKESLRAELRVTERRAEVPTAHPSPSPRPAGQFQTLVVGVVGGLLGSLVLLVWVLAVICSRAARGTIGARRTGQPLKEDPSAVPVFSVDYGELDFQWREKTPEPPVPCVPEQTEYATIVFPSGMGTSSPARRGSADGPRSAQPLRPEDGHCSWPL

The molecule “anti-human PD-1 monoclonal antibody EH12” registered an expansion of HCV-specific CFSE-low tetramer+ CD8+ T cells, 6 days with cognate peptide and IL-2 in test [1] of 4 fold.

B1: anti-human PD-L1 monoclonal antibody 29E.2A3 (antibody, from another filing, mouse IgG2b, V domains shown)
VH: EVQLQQSGPELVKPGASVKMSCKASGYTFTSYVMHWVKQKPGQGLEWIGYVNPFNDGTKYNEMFKGKATLTSDKSSSTAYMELSSLTSEDSAVYYCARQAWGYPWGQGTLVTVSA
VL: DIVLTQSPASLAVSLGQRATISCRATESVEYYGTSLVQWYQQKPGQPPKLLIYAASSVDSGVPARFSGSGSGTDFSLTIHPVEEDDIAMYFCQQSRRVPYTFGGGTKLEIK
B1: in test [2], the expansion of HCV-specific CFSE-low tetramer+ CD8+ T cells, 6 days with cognate peptide and IL-2 is 4 fold; the fold increase in B*4201 TL9 tetramer+ CD8+ T cells, 6-day CFSE proliferation assay of human PBMC with TL9 peptide plus antibody (peptide alone: 4.8-fold) came out at 10.3 fold; the fold increase in frequency of EBV or CMV-specific CD8 T cells, 6-day CFSE assay, peptide plus antibody against peptide alone is under 3.5 fold; the percentage of B*4201 TL9-specific CD8+ T cells after 6-day stimulation with peptide worked out at 12.4%.
